Experimental data reported in US20150344570A1 (published 2015).

B1: GpH7-A5/GpH7-B3 variant D265_02A/GpL16-k0 (antibody, human IgG1, kappa)
heavy 1: not shown
heavy 2: not shown
light: DIVMTQSPLSLPVTPGEPASISCQASESLVHSNRNTYLHWYLQKPGQSPQLLIYKVSNRFSGVPDRFSGSGSGTDFTLKISRVEAEDVGVYYCSQNTHVPPTFGQGTKVEIERTVAAPSVFIFPPSDEQLKSGTASVVCLLNNFYPREAKVQWKVDNALQSGNSQESVTEQDSKDSTYSLSSTLTLSKADYEKHKVYACEVTHQGLSSPVTKSFNRGEC
notes: mutation in the GpH7-B3 chain only; also called He Ab
B2: GpH7-A5/GpH7-B3 variant D265_19Q/GpL16-k0 (antibody, human IgG1, kappa)
heavy 1: not shown
heavy 2: not shown
light: B1 light
notes: as for B1
B3: GpH7-A5/GpH7-B3 variant V266_20W/GpL16-k0 (antibody, human IgG1, kappa)
heavy 1: not shown
heavy 2: not shown
light: B1 light
notes: as for B1
B4: GpH7-A5/GpH7-B3 variant E269_01G/GpL16-k0 (He Ab) (antibody, human IgG1, kappa)
heavy 1: not shown
heavy 2: not shown
light: B1 light
notes: He Ab: mutation in one H chain only
B5: GpH7-A5/GpH7-B3 variant D265_10E/GpL16-k0 (He Ab) (antibody, human IgG1, kappa)
heavy 1: not shown
heavy 2: not shown
light: B1 light
notes: as for B4
B6: GpH7-A5/GpH7-B3 variant E269_02A/GpL16-k0 (He Ab) (antibody, human IgG1, kappa)
heavy 1: not shown
heavy 2: not shown
light: B1 light
notes: as for B4
B7: GpH7-A5/GpH7-B3 variant E269_03V/GpL16-k0 (He Ab) (antibody, human IgG1, kappa)
heavy 1: not shown
heavy 2: not shown
light: B1 light
notes: as for B4
B8: GpH7-A5/GpH7-B3 variant E269_04F/GpL16-k0 (He Ab) (antibody, human IgG1, kappa)
heavy 1: not shown
heavy 2: not shown
light: B1 light
notes: as for B4
B9: GpH7-A5/GpH7-B3 variant E269_05P/GpL16-k0 (He Ab) (antibody, human IgG1, kappa)
heavy 1: not shown
heavy 2: not shown
light: B1 light
notes: as for B4
B10: GpH7-A5/GpH7-B3 variant S324_11K/GpL16-k0 (antibody, human IgG1, kappa)
heavy 1: not shown
heavy 2: not shown
light: B1 light
notes: also called He Ab S324_11K
B11: GpH7-A5/GpH7-B3 variant S324_12R/GpL16-k0 (antibody, human IgG1, kappa)
heavy 1: not shown
heavy 2: not shown
light: B1 light
notes: also called He Ab S324_12R
B12: GpH7-A5/GpH7-B3 variant S324_14T/GpL16-k0 (antibody, human IgG1, kappa)
heavy 1: not shown
heavy 2: not shown
light: B1 light
notes: also called He Ab S324_14T
B13: GpH7-A5/GpH7-B3 variant S324_15Y/GpL16-k0 (antibody, human IgG1, kappa)
heavy 1: not shown
heavy 2: not shown
light: B1 light
notes: also called He Ab S324_15Y
B14: GpH7-A5/GpH7-B3 variant S324_16H/GpL16-k0 (antibody, human IgG1, kappa)
heavy 1: not shown
heavy 2: not shown
light: B1 light
notes: also called He Ab S324_16H
B15: GpH7-A5/GpH7-B3 variant S324_18N/GpL16-k0 (antibody, human IgG1, kappa)
heavy 1: not shown
heavy 2: not shown
light: B1 light
notes: also called He Ab S324_18N
B16: GpH7-A5/GpH7-B3 variant S324_19Q/GpL16-k0 (antibody, human IgG1, kappa)
heavy 1: not shown
heavy 2: not shown
light: B1 light
notes: also called He Ab S324_19Q
B17: GpH7-A5/GpH7-B3 variant S324_20W/GpL16-k0 (antibody, human IgG1, kappa)
heavy 1: not shown
heavy 2: not shown
light: B1 light
notes: also called He Ab S324_20W
B18: GpH7-A5/GpH7-B3 variant S337_01G/GpL16-k0 (antibody, human IgG1, kappa)
heavy 1: not shown
heavy 2: not shown
light: B1 light
notes: also called He Ab S337_01G
B19: GpH7-A5/GpH7-B3 variant S337_02A/GpL16-k0 (antibody, human IgG1, kappa)
heavy 1: not shown
heavy 2: not shown
light: B1 light
notes: also called He Ab S337_02A
B20: GpH7-A5/GpH7-B3 variant S337_03V/GpL16-k0 (antibody, human IgG1, kappa)
heavy 1: not shown
heavy 2: not shown
light: B1 light
notes: also called He Ab S337_03V
B21: GpH7-A5/GpH7-B3 variant S337_04F/GpL16-k0 (antibody, human IgG1, kappa)
heavy 1: not shown
heavy 2: not shown
light: B1 light
notes: also called He Ab S337_04F
B22: GpH7-A5/GpH7-B3 variant S337_06M/GpL16-k0 (antibody, human IgG1, kappa)
heavy 1: not shown
heavy 2: not shown
light: B1 light
notes: also called He Ab S337_06M
B23: GpH7-A5/GpH7-B3 variant S337_07I/GpL16-k0 (antibody, human IgG1, kappa)
heavy 1: not shown
heavy 2: not shown
light: B1 light
notes: also called He Ab S337_07I
B24: GpH7-A5/GpH7-B3 variant S337_08L/GpL16-k0 (antibody, human IgG1, kappa)
heavy 1: not shown
heavy 2: not shown
light: B1 light
notes: also called He Ab S337_08L
B25: GpH7-A5/GpH7-B3 variant S337_09D/GpL16-k0 (antibody, human IgG1, kappa)
heavy 1: not shown
heavy 2: not shown
light: B1 light
notes: also called He Ab S337_09D
B26: GpH7-A5/GpH7-B3 variant S337_10E/GpL16-k0 (antibody, human IgG1, kappa)
heavy 1: not shown
heavy 2: not shown
light: B1 light
notes: also called He Ab S337_10E
B27: GpH7-A5/GpH7-B3 variant S337_12R/GpL16-k0 (antibody, human IgG1, kappa)
heavy 1: not shown
heavy 2: not shown
light: B1 light
notes: also called He Ab S337_12R
B28: GpH7-A5/GpH7-B3 variant S337_15Y/GpL16-k0 (antibody, human IgG1, kappa)
heavy 1: not shown
heavy 2: not shown
light: B1 light
notes: also called He Ab S337_15Y
B29: GpH7-A5/GpH7-B3 variant S337_19Q/GpL16-k0 (antibody, human IgG1, kappa)
heavy 1: not shown
heavy 2: not shown
light: B1 light
notes: also called He Ab S337_19Q
B30: GpH7-A5/GpH7-B3 variant S337_20W/GpL16-k0 (antibody, human IgG1, kappa)
heavy 1: not shown
heavy 2: not shown
light: B1 light
notes: also called He Ab S337_20W
B31: GpH7-A5/GpH7-B3 variant T335_04F/GpL16-k0 (antibody, human IgG1, kappa)
heavy 1: not shown
heavy 2: not shown
light: B1 light
notes: also called He Ab T335_04F
B32: GpH7-A5/GpH7-B3 variant T335_05P/GpL16-k0 (antibody, human IgG1, kappa)
heavy 1: not shown
heavy 2: not shown
light: B1 light
notes: also called He Ab T335_05P
B33: GpH7-A5/GpH7-B3 variant T335_06M/GpL16-k0 (antibody, human IgG1, kappa)
heavy 1: not shown
heavy 2: not shown
light: B1 light
notes: also called He Ab T335_06M
B34: GpH7-A5/GpH7-B3 variant T335_07I/GpL16-k0 (antibody, human IgG1, kappa)
heavy 1: not shown
heavy 2: not shown
light: B1 light
notes: also called He Ab T335_07I
B35: GpH7-A5/GpH7-B3 variant T335_08L/GpL16-k0 (antibody, human IgG1, kappa)
heavy 1: not shown
heavy 2: not shown
light: B1 light
notes: also called He Ab T335_08L
B36: GpH7-A5/GpH7-B3 variant T335_09D/GpL16-k0 (antibody, human IgG1, kappa)
heavy 1: not shown
heavy 2: not shown
light: B1 light
notes: also called He Ab T335_09D
B37: GpH7-A5/GpH7-B3 variant T335_10E/GpL16-k0 (antibody, human IgG1, kappa)
heavy 1: not shown
heavy 2: not shown
light: B1 light
notes: also called He Ab T335_10E
B38: GpH7-A5/GpH7-B3 variant T335_11K/GpL16-k0 (antibody, human IgG1, kappa)
heavy 1: not shown
heavy 2: not shown
light: B1 light
notes: also called He Ab T335_11K
B39: GpH7-A5/GpH7-B3 variant T335_12R/GpL16-k0 (antibody, human IgG1, kappa)
heavy 1: not shown
heavy 2: not shown
light: B1 light
notes: also called He Ab T335_12R
B40: GpH7-A5/GpH7-B3 variant T335_15Y/GpL16-k0 (antibody, human IgG1, kappa)
heavy 1: not shown
heavy 2: not shown
light: B1 light
notes: also called He Ab T335_15Y
B41: GpH7-A5/GpH7-B3 variant V266_19Q/GpL16-k0 (antibody, human IgG1, kappa)
heavy 1: not shown
heavy 2: not shown
light: B1 light
notes: also called He Ab V266_19Q
B42: GpH7-A5/GpH7-B3 variant Y300_12R/GpL16-k0 (antibody, human IgG1, kappa)
heavy 1: not shown
heavy 2: not shown
light: B1 light
notes: also called He Ab Y300_12R

Biological target: T1, FcγRIIb (human, UniProt P31994 43-217)
T1 construct: extracellular domain; also called FcgRIIb; 2b
T1 sequence (looked up): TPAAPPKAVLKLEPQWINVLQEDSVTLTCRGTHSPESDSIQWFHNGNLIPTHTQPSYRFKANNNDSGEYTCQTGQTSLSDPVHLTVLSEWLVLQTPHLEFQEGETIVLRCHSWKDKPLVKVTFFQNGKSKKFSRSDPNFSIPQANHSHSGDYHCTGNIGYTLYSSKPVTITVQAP
Assay: SPR (Biacore), relative binding

Binder | He/Con_2b
B1 | 19.9 % of GpH7-A5/GpH7-B3/GpL16-k0
B2 | 33.4 % of GpH7-A5/GpH7-B3/GpL16-k0
B3 | 71.9 % of GpH7-A5/GpH7-B3/GpL16-k0

Biological target: T2, FcγRIa extracellular domain with C-terminal His tag (human, UniProt P12314 16-292)
T2 construct: extracellular domain; Expressed in FreeStyle293 cells; analyte in the SPR assay; also called FcgRI; 1a
Assay: SPR (Biacore), relative binding, HeCon Ab = 100

T2 sequence (P12314 16-292): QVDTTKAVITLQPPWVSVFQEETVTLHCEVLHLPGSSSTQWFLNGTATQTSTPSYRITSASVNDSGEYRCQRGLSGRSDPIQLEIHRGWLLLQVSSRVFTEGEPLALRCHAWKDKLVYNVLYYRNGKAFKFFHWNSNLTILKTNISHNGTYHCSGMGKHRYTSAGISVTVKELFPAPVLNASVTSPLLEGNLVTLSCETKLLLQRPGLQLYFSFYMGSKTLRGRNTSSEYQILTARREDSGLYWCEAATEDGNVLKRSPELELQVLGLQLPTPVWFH

Binder | He/Con_1a
B4 | 104 % of HeCon Ab (=100)
B5 | 101 % of HeCon Ab (=100)
B6 | 104 % of HeCon Ab (=100)
B7 | 103 % of HeCon Ab (=100)
B8 | 103 % of HeCon Ab (=100)
B9 | 102 % of HeCon Ab (=100)

Biological target: T3, FcγRIIb extracellular domain with C-terminal His tag (human, UniProt P31994 43-217)
T3 construct: extracellular domain; Expressed in FreeStyle293 cells; analyte in the SPR assay; also called FcgRIIb; 2b
T3 sequence (looked up): T1 sequence (looked up)
Assay: SPR (Biacore), relative binding, HeCon Ab = 100

Binder | He/Con_2b
B4 | 51.5 % of HeCon Ab (=100)
B5 | 38.2 % of HeCon Ab (=100)
B6 | 49.9 % of HeCon Ab (=100)
B7 | 45.1 % of HeCon Ab (=100)
B8 | 45 % of HeCon Ab (=100)
B9 | 52.6 % of HeCon Ab (=100)

Biological target: T4, FcγRIa (human, UniProt P12314 16-292)
T4 construct: extracellular domain; Soluble extracellular domain expressed in FreeStyle293 cells, used as analyte in Biacore; also called FcgRI; 1a; not shown: His tag attached to the C terminus
Assay: SPR (Biacore); He Ab vs HeCon Ab GpH7-A5/GpH7-B3/GpL16-k0
Experimental: Analysis of interaction between objective antibody and the FcγR was carried out using Biacore T100 (GE Healthcare). HBS-EP+ (GE Healthcare) was used as the running buffer, and the measurement temperature was set to 25° C. Chips produced by immobilizing the antigen peptide by the amine coupling method to a Series S Sencor Chip CM5 (GE Healthcare), or alternatively, chips produced by allowing preliminarily biotinylated antigen peptides to interact with and immobilize onto a Series S Sensor Chip SA (certified) (GE Healthcare) were used. Antibodies of interest were captured onto an antigen peptide-immobilized chip, and allowed to interact to each FcγR diluted with running buffer. To regenerate and repeatedly use the chip, the antibodies captured on the chip were washed off by reacting 10 mM glycine-HCl, pH 1.5.

T4 sequence (P12314 16-292): as above

Binder | He/Con_1a
B10 | 102 relative binding, control = 100
B11 | 102 relative binding, control = 100
B12 | 121 relative binding, control = 100
B13 | 114 relative binding, control = 100
B14 | 113 relative binding, control = 100
B15 | 116 relative binding, control = 100
B16 | 112 relative binding, control = 100
B17 | 114 relative binding, control = 100
B18 | 107 relative binding, control = 100
B19 | 106 relative binding, control = 100
B20 | 107 relative binding, control = 100
B21 | 106 relative binding, control = 100
B22 | 107 relative binding, control = 100
B23 | 105 relative binding, control = 100
B24 | 105 relative binding, control = 100
B25 | 106 relative binding, control = 100
B26 | 106 relative binding, control = 100

Binder | He/Con_1a
B27 | 106 relative binding, control = 100
B28 | 104 relative binding, control = 100
B29 | 105 relative binding, control = 100
B30 | 105 relative binding, control = 100
B31 | 105 relative binding, control = 100
B32 | 106 relative binding, control = 100
B33 | 107 relative binding, control = 100
B34 | 109 relative binding, control = 100
B35 | 115 relative binding, control = 100
B36 | 108 relative binding, control = 100
B37 | 109 relative binding, control = 100
B38 | 111 relative binding, control = 100
B39 | 113 relative binding, control = 100
B40 | 107 relative binding, control = 100
B41 | 100 relative binding, control = 100
B42 | 105 relative binding, control = 100
